{
  "source": "patent US20110151450",
  "test_in_all_cases": "cleavage_in_vitro",
  "key": {"[1]": {"test_system": "T1, ApoI-HF T77A/T96A (Arthrobacter protophormiae)", "T1 sequence": "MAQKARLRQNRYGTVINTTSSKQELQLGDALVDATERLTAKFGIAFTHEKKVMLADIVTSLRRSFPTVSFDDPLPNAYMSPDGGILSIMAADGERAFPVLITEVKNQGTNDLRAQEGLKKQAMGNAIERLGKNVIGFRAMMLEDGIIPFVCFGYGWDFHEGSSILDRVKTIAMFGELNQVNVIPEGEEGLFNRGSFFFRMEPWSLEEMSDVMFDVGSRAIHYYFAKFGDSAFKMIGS", "settings": "NEB4, relative activity 50%"}, "[2]": {"target": "T2, BglII-HF N208A (Bacillus globigii) (UniProt Q45488)", "T2 sequence": "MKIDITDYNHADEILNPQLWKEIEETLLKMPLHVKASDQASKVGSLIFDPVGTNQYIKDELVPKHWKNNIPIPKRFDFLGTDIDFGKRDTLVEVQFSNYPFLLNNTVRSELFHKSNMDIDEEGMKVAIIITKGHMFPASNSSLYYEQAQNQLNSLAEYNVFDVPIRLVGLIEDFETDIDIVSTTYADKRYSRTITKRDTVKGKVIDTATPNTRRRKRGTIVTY", "settings": "NEB4, relative activity 25%"}, "[3]": {"test_system": "T3, BsaWI-WT (Bacillus stearothermophilus)", "T3 sequence": "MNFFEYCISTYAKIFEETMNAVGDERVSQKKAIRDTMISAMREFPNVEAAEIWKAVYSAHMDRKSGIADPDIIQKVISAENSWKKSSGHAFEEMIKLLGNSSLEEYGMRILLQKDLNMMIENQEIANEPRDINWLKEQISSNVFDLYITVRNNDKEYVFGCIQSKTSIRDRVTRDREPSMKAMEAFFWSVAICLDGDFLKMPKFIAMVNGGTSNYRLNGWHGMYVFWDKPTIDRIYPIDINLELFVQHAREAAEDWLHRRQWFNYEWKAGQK", "settings": "NEB4, relative activity 100%"}, "[4]": {"test_system": "T4, NsiI-HF F376A (Neisseria sicca)", "T4 sequence": "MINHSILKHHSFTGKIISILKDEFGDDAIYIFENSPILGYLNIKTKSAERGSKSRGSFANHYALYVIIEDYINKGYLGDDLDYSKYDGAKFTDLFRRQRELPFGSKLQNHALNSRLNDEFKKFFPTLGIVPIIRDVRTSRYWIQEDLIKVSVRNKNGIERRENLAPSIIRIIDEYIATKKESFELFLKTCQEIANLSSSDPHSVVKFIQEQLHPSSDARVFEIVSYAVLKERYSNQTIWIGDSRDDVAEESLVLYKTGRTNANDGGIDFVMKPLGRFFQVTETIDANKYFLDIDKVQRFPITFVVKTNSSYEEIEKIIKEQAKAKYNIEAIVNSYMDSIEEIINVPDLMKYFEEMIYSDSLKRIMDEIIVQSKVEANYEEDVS", "settings": "NEB4, relative activity 100%"}, "[5]": {"test_system": "T5, NsiI-WT (Neisseria sicca)", "T5 sequence": "T4 sequence with A376F", "settings": "NEB4, relative activity 12.5%"}, "[6]": {"test_system": "T6, PvuI-HF P154A (Proteus vulgaris)", "T6 sequence": "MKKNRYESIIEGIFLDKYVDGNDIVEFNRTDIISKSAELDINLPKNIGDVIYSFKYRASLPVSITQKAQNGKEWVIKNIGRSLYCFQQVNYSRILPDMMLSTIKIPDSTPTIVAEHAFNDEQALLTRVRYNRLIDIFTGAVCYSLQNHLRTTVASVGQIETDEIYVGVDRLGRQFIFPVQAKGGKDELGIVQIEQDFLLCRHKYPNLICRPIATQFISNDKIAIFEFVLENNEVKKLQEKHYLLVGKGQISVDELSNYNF", "settings": "NEB4, relative activity 100%"}, "[7]": {"target": "T7, SmaI-WT (Serratia marcescens) (UniProt P14229)", "T7 sequence": "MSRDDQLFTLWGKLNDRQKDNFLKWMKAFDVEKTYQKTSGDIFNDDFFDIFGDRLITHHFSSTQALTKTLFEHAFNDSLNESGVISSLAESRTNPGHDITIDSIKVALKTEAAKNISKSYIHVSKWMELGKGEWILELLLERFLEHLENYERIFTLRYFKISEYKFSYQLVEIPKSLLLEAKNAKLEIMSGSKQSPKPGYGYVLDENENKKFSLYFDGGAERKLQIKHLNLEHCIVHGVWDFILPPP", "settings": "NEB4, relative activity 100%"}},
  "note": "Positions count from the first letter of the chain named.",
  "data": [
    {"substance": "pXba plasmid", "values": [
      {"measurement": "activity (fidelity index)", "setting": "[1]", "result": "> 2000"},
      {"measurement": "activity (fidelity index)", "setting": "[2]", "result": "> 32000"},
      {"measurement": "activity (fidelity index)", "setting": "[3]", "result": 16},
      {"measurement": "activity (fidelity index)", "setting": "[4]", "result": "> 8000"},
      {"measurement": "activity (fidelity index)", "setting": "[5]", "result": 32},
      {"measurement": "activity (fidelity index)", "setting": "[6]", "result": "> 16000"},
      {"measurement": "activity (fidelity index)", "setting": "[7]", "result": 64}
    ]}
  ]
}
